Reference: article PMC5942852
pKd: −log10 of the molar value.

Legend:
CH103 (human) [1] = assay: SPR; ProteOn XPR36 (Bio-Rad), GLC chip; IgG captured on amine-coupled anti-human capture antibody (Human Antibody Capture Kit), antigen as analyte; 1x HBS-EP+ pH 7.4 with BSA 1 mg/ml; equilibrium or kinetic Langmuir model
[2] = target: CH103 WT with the H2-6 residue at position 67 (E->Y) (human); assay: as above
[3] = target: H2-6 position 59 mutant (Y->F) (human); assay: as above
[4] = target: H2-6 position 67 mutant (Y->E) (human); assay: as above
H2-6 position 67 mutant (Y->E) (human), sequence (heavy, as listed by the source, chain 1 of 2): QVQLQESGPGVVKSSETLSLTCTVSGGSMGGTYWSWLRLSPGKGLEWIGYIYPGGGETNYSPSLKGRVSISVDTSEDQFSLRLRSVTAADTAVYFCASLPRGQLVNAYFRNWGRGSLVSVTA
H2-6 position 67 mutant (Y->E) (human), sequence (light, as listed by the source, chain 2 of 2): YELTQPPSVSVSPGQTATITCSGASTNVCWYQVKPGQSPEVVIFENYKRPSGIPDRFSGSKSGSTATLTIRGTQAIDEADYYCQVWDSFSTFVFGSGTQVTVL

CH103 (human) [5] = assay: SPR; Biacore 4000, CM5 chip; IgG captured on amine-coupled anti-human capture antibody (Human Antibody Capture Kit), antigen as analyte; 1x HBS-EP+ pH 7.4 with BSA 1 mg/ml; equilibrium or kinetic Langmuir model; apparent KD

CH103 (human), sequence (heavy, as listed by the source, chain 1 of 2): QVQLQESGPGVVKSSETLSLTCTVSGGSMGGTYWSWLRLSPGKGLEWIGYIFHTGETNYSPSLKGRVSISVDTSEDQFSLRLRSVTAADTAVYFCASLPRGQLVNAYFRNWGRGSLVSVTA
CH103 (human), sequence (light, as listed by the source, chain 2 of 2): as the sequence (light, as listed by the source, chain 2 of 2) above
H2-6 position 59 mutant (Y->F) (human), sequence (heavy, as listed by the source, chain 1 of 2): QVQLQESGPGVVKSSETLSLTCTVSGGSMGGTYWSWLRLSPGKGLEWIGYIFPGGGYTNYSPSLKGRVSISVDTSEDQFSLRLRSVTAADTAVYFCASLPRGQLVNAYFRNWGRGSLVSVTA
H2-6 position 59 mutant (Y->F) (human), sequence (light, as listed by the source, chain 2 of 2): as the sequence (light, as listed by the source, chain 2 of 2) above
CH103 WT with the H2-6 residue at position 67 (E->Y) (human), sequence (heavy, as listed by the source, chain 1 of 2): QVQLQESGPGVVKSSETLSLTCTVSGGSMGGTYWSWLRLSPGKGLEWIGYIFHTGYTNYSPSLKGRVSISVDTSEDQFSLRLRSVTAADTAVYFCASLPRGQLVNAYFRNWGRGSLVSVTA
CH103 WT with the H2-6 residue at position 67 (E->Y) (human), sequence (light, as listed by the source, chain 2 of 2): as the sequence (light, as listed by the source, chain 2 of 2) above

gp120 Core Bal (domain or fragment) showed a pKd (CH103 (human) [1]) of 5.96, a pKd [2] of 7.93 and a pKd [3] of 7.89. It also gave a pKd [4] of 6.67 and a pKd (CH103 (human) [5]) of 7.04.
For gp120 Core HXB2 (domain or fragment), the pKd (CH103 (human) [1]) was 6.86, the pKd [2] was 8.64 and the pKd [3] was 8.66. It also gave a pKd [4] of 7.51 and a pKd (CH103 (human) [5]) of 7.28.
